Measurements published in patent publication US11339381B2, “Nucleotide sequence encoding 9-lipoxygenase and recombinant constructs comprising the same” (Council of Scientific & Industrial Research, priority 2016, dated 2022).
One block for each molecule: values may come before it.

Columns and labels:
[1] = test system: recombinant 9-lipoxygenase (Mi9LOX); test: Recombinant Mi9LOX enzyme kinetics with LA and ALA as substrates (conjugated diene formation at 234 nm); assay type: biochemical, Mangifera indica; conditions: substrate of Mi9LOX
Experimental: The recombinant 9-lipoxygenase (Mi9LOX) activity assays was initially carried out in 250 μl final volume of 100 mM phosphate citrate buffer pH 7.0 at 30° C. containing 200 μM substrate (LA/ALA) and 0.005% Tween20. The activity was measured by formation of the conjugated diene at absorbance of 234 nm, applying an extinction coefficient 25000 M^-1 cm^-1 for both the substrates. […] at 0th min for each reaction is considered as blank and subtracted from […] for given time (t). Similar activity assays were also performed with protein expressed from empty vector for the confirmation of Mi9LOX activity. Optimum pH was determined by calculating activity at varied range of pH in phosphate citrate buffer at 30° C., whereas temperature optima was determined by calculating recombinant 9-lipoxygenase activity in phosphate citrate buffer pH 7 at various temperatures. The purified recombinant 9-lipoxygenase having amino acid sequence as set forth in SEQ ID NO: 2 used linoleic acid (LA) and alpha linolenic acid (ALA) as substrates. Activity of the recombinant 9-lipoxygenase protein was measured spectrophotometrically at 234 nm by the formation of conjugated dienes. For unit calculations, molar extinction coefficient for hydroperoxy linoleate and linolenate was considered 25000 cm^-1M^-1. […]

[2] = test system: ethylene treated mango fruits; test: In vivo transient over expression of 9-lipoxygenase by Agrobacterium mediated infiltration; design: species or system Alphonso mango (Mangifera indica); conditions: for δ-decalactone content compared to control tissue / δ-valerolactone content compared to control tissue: transient over expression, 2 days post infiltration, GC-FID
Experimental: The full length polynucleotide sequence (SEQ ID NO: 1) encoding 9-lipoxygenase (SEQ ID NO: 2) was cloned into the pBI121 plant expression vector between CaMV 35S promoter and GusA gene. Terminal primers were designed (SEQ ID NO: 10 and SEQ ID NO: 11) to clone genes at BamHI restriction site. The resulted correct oriented construct pBI121+Mi9LOX and pBI121 empty vector were transformed in the Agrobacterium GV3101 strain for transient expression studies. Separate Agrobacterium cultures (5 mL) were initiated from individual colonies in YEB medium having appropriate antibiotics and incubated overnight at 28° C. This culture was transferred to 50 mL induction medium (0.5% beef extract, 0.1% yeast extract, 0.5% peptone, 0.5% sucrose, 2 mM MgSO4, […], 10 mM MES, pH 5.6) having appropriate antibiotics, and again grown overnight. On the succeeding day, cultures were recovered by centrifugation, resuspended in infiltration medium (10 mM MgCl2, 10 mM MES, […], pH 5.6) till optical density reaches 1.0. This suspension was again incubated at 28° C. with gentle agitation for 2 hrs. Over expression studies for 9LOX was carried out by Agrobacterium mediated infiltration in ethylene treated mango fruits at 3DAH stage by using hypodermic syringe (FIG. 4a). Equal volumes of pBI121+Mi9LOX and pBI121 construct containing cultures were used for infiltration in two different halves of same mango fruit separated by fruit stone. Set of five distinct mango fruits were used for the overexpression study as data set. Infiltrated fruits were kept at 25° C. for 2 days in 12 hr dark and 12 hr light conditions, after 2 days; part from each fruit halves was checked by the Gus staining (Kapila et al. 1997; Spolaore et al. 2001) to confirm expression of Mi9LOX under 35S promoter along with GusA, remaining part of fruit pulp stored in −80° C. until used for the lactone analysis by gas chromatography.
Thus, ethylene treated mangoes were ideal for Agrobacterium infiltration studies as Agrobacterium infiltrated fruits cannot be incubated for more than 2 days due to the risk of bacterial and fungal infection owing to fruit injury during infiltration. Two days post infiltration, a part of fruit was checked by Gus staining (FIG. 4b) to confirm expression of GusA along with the Mi9LOX gene. The remaining tissue was used for the lactone content analysis. The lactones were analysed from control and test region of fruits from Mi9LOX sets. Total 8 lactones viz. γ-butyrolactone, δ-valerolactone, γ-hexalactone, δ-hexalactone, γ-octalactone, δ-octalactone, γ-decalactone and δ-decalactone were detected from all the tissues in GC-MS analysis.

[3] = test system: recombinant 9-lipoxygenase (Mi9LOX); test: pH and temperature activity profile of recombinant Mi9LOX; assay type: biochemical, Mangifera indica; conditions: for Optimum temperature: phosphate citrate buffer pH 7
Experimental: The recombinant 9-lipoxygenase (Mi9LOX) activity assays was initially carried out in 250 μl final volume of 100 mM phosphate citrate buffer pH 7.0 at 30° C. containing 200 μM substrate (LA/ALA) and 0.005% Tween20. The activity was measured by formation of the conjugated diene at absorbance of 234 nm, applying an extinction coefficient 25000 M^-1 cm^-1 for both the substrates. […] at 0th min for each reaction is considered as blank and subtracted from […] for given time (t). Similar activity assays were also performed with protein expressed from empty vector for the confirmation of Mi9LOX activity. Optimum pH was determined by calculating activity at varied range of pH in phosphate citrate buffer at 30° C., whereas temperature optima was determined by calculating recombinant 9-lipoxygenase activity in phosphate citrate buffer pH 7 at various temperatures. The purified recombinant 9-lipoxygenase having amino acid sequence as set forth in SEQ ID NO: 2 used linoleic acid (LA) and alpha linolenic acid (ALA) as substrates. Activity of the recombinant 9-lipoxygenase protein was measured spectrophotometrically at 234 nm by the formation of conjugated dienes. For unit calculations, molar extinction coefficient for hydroperoxy linoleate and linolenate was considered 25000 cm^-1M^-1. 9HpODE and 9HpOTrE products formed by the activity of Mi9LOX on LA and ALA respectively were confirmed by UPLC-HRMS. […] (FIG. 10(a)).

[4] = HRMS intermediate metabolite analysis

Km [1]: 354 µM | Vmax [1]: LA- 611.11 ± 55.55 μM min^−1mg^−1
Molecule: CCCCC/C=C\C/C=C\CCCCCCCC(=O)O [LA, linoleic acid]

Molecule: SEQ ID NO: 1: 2526 bp cDNA polynucleotide encoding 9-lipoxygenase, cloned in pBI121 and agroinfiltrated for transient over expression
δ-decalactone content compared to control tissue [2]: 1.48 fold | δ-valerolactone content compared to control tissue [2]: 1.08 fold

reduction in the activity ([3]; at 35° C.): 75% | reduced activity ([3]; at 50° C.): 69% | reduction in the activity ([3]; at pH 5 and 9): 40%
B1: Mi9LOX: Recombinant Mangifera indica 9-lipoxygenase from Alphonso mango, 841 aa, SEQ ID NO: 2 (protein)
chain: MGTVVLMKKNFLDFNDLSASVIDRVDELVGKRVSLQLVSAFNSDPTASNGLQGKVGEPAHLEEWITTITPLVAEESTFKVTFDWDEQIGVPGAFIIKNNHHSGFYLKSLTLEDVPNQGRIHFVCNSWVYPAKRYKKDRVFFTNKTYLPGEMPAPLQYYREQELLNLRGDGTGELQEWDRVYDYAYYNDLGDPDNGKPRPVLGGSTEYPYPRRGRTGRPPAKTDPETESRLPLLTSLNIYVPRDERFGHIKMSDFLGYALKSISQFIEPALESVFDSTPNEFDNFAQIYKLYDEGIQLPNDHFLDDIRNNIPLELLKEIFPTNEDNLFEFPTPQVIQGDRSAWRTDEEFAREMLAGPNPVIIRRVEEFPPRSKLDPELYGDQDSKITKQHIESYLDGLTVEQAIEKNELFILDHHDSLMTYLRRINTTSTKTYASRTILFLKEDGTLKPLAIELSRPHPDGDQYGAISNVYTPSEDEVEGSIWQLAKAYVAVNDSGVHQLISHWLKTHAAIEPFVIATNRQLSVLHPIYKLLQPHFRDTMNINAFARQIVINAGGILETTVFPAKYAMEMSSAIYKDWTFPDQALPEDLKNRGMAVEDPNSPHGLRLLIADYPYAVDGLEIWFAIKNWVKDYCYFYYKSDEMMQKDSGLQSWWKELREEGHGDKKDEPWWPKMQNREELIEACTIIIWIASALHAAVNFGQYPYAGFLPNRPTMSRRFMPEKGTPDYDELESNFDKVFLKTITAQRQTLLGIALIETLSRHSSDEMYLGQRDTPEWTSDKIPLQAFEDFGKKLGDIEVRIITRNHDNMLKNRVGPVNMPYTLLYPTSEGGLTGKGIPNSVSI
modifications: Protein sequence of 7- Dehydrocholestrol reductase (7-DHCR)
Optimum pH ([3]; phosphate citrate buffer at 30° C.): 6.5 | Optimum temperature [3]: 37 °C | Optimum temperature ([3]; listed as recombinant 9-lipoxygenase): 35 °C | 9HpODE in control and test tissues [2, 4]: not detected | increase in 9HpOTrE upon Mi9LOX over expression [2, 4]: 1.9 folds | δ-decalactone content compared to control tissue [2]: 1.48 fold | δ-valerolactone content compared to control tissue [2]: 1.08 fold | increase of Mi9LOX transcripts in test tissues as compared to the control tissues ([2]; upon Agrobacterium infiltration): 1.73
